Reference: patent US20050106100A1, “Compounds containing matrix metalloproteinase substrates and methods of their use” (priority 2003, published 2005)

Key:
[1] = system: CC(=O)N1CCC[C@H]1C(=O)N[C@@H](CC(C)C)C(=O)NCC(=O)N[C@@H](CCc1ccccc1)C(=O)N[C@@H](Cc1ccc(O)cc1)C(=O)N[C@@H](CC(C)C)C(=O)NNC(=O)c1ccc(N/N=C/c2ccccc2S(=O)(=O)ON)nc1; test: Kinetic measurements of substrate hydrolysis by active MMP-9 (radio HPLC assay); assay type: biochemical, human; conditions: other: active MMP-9 final concentration 2 nM, 37° C., 60 minutes, radiolabeled test substrate, pH 7.5
Protocol: (§1) Purified MMP-2 (10 μg) or MMP-9 (10 μg) were reconstituted in 100 μL of TCN buffer. […] Pro-MMP-2 was activated by incubation with 2 nM APMA for 2 hours at 37° C. At the end of incubation 100 μl of 100% glycerol was added to active MMP-2 and active MMP-9 (final concentration 50% glycerol). Active MMP-2 and active MMP-9 were aliquoted and stored at −20° C.
(§2) The level of active protease was always quantified by active site titration studies prior to kinetic studies. The active site of MMP-9 and MMP-2 was titrated using the GM6001 dissolved in 100% DMSO at a stock concentration of 2.5 mM. Dilutions (1:2) of GM6001 were prepared in TCN buffer to give a final concentration of 5 nM to 0.04 nM GM6001 in the active site titration assay. Activated MMP-2 or activated MMP-9 (2 nM) was preincubated with increasing concentrations of GM60001 at 37° C. for 15 minutes in 96 well black microtiter plates. […] Plates were read on fluorescence spectrophotometer at excitation wavelength of 320 nm and emission wavelength of 395 nm. The concentration of the active enzyme was determined using the Morrison equation and Kaleidagraph software (Reading, Pa.).
(§3) The kinetic parameters of substrate hydrolysis were determined using a radio HPLC assay. The turnover of different substrates by active MMP-2 and active MMP-9 was determined using this assay. […] The radiolabel was detected by a IN/US beta ram detector. […]

[2] = system: CC(=O)N1CCC[C@H]1C(=O)N[C@@H](CCCN)C(=O)NCC(=O)N[C@@H](CCc1ccccc1)C(=O)N[C@@H](CC(C)C)C(=O)NNC(=O)c1ccc(N/N=C/c2ccccc2S(=O)(=O)O)nc1; test: as above; assay type: biochemical, human; conditions: other: active MMP-9 final concentration 2 nM, 37° C., 60 minutes, radiolabeled test substrate, pH 7.5
Protocol: as §1, §2, §3

MMP-9 (Homo sapiens), sequence (chain, as listed by the source): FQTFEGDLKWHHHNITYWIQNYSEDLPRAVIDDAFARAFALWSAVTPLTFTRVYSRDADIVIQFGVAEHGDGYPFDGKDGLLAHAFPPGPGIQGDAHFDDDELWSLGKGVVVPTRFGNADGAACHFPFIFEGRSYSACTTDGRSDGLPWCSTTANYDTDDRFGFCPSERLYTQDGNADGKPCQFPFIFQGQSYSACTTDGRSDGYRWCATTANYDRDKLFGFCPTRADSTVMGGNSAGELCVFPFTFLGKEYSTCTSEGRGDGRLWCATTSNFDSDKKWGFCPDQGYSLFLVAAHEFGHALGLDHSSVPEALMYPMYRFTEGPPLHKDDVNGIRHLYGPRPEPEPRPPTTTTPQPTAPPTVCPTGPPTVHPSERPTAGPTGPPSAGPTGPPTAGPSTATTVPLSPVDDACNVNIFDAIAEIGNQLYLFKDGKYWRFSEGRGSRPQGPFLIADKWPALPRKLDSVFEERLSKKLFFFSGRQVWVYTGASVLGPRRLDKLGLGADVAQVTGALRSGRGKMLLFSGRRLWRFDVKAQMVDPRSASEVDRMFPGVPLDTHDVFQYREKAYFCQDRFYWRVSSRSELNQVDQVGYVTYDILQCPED

## MMP-9 (Homo sapiens)
[1]
  kcat/Km: > 100000 M⁻¹ s⁻¹
[2]
  kcat/Km: 4450 M⁻¹ s⁻¹
